Reference: US20030158083A1, “Method of effecting angiogenesis by modulating the function of a novel endothelia phosphatase” (The Procter & Gamble Company, priority 2002, published 2003)

Experiments:
[1] = target: T1, human VEGFR2 intracellular domain (Homo sapiens, UniProt P35968, K868R); assay: Yeast two-hybrid interaction with intracellular domain of VEGFR2; format: binding; conditions: ATP binding site mutated (K870R)
T1 construct: expressed in transfected cells; host or cells: yeast strain MaV203 (pDBLeu-hVEGFR2)
T1 sequence (P35968 790-1356 K868R): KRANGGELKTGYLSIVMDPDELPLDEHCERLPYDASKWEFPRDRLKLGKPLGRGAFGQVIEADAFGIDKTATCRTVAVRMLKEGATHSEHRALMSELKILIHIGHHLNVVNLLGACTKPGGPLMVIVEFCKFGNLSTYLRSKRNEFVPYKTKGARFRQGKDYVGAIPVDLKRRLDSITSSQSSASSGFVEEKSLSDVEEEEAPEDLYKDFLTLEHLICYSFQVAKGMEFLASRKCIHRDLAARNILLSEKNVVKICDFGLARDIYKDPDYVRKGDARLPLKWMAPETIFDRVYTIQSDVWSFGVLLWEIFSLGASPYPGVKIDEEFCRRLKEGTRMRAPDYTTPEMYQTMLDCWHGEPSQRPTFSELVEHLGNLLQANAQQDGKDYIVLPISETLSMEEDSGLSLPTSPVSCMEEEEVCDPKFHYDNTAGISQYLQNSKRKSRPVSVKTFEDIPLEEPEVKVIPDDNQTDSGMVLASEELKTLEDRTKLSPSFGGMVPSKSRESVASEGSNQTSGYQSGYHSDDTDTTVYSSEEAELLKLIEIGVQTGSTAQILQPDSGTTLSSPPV
Text: (§1) All two-hybrid plasmid constructs used the pDBLeu and pPC86 yeast expression vectors as a part of the ProQuest Two-Hybrid System (Life Technologies, Rockville, Md.). A cDNA encoding the intracellular domain of human VEGFR2 was generated by PCR from a human VEGFR2/pJFE14 construct, obtained from Regeneron Pharmaceuticals (Tarrytown, N.Y.), and subcloned into the yeast bait vector downstream of the GAL4 DNA-binding domain. A human umbilical vein endothelial cell (HUVEC) cDNA library (in pPC86) was co-transformed with pDBLeu-hVEGFR2 into the MaV203 strain of yeast. Proteins that interacted with the intracellular domain of human VEGFR2 were selected and tested for specificity according to the manufacturer's instructions.
(§2) In an ongoing effort to understand mechanisms by which the biological activity of VEGF is mediated through the VEGF receptor-2 (KDR/Flk-1), we used the entire cytoplasmic domain of KDR as bait to screen human umbilical vein endothelial cell (HUVEC) and human fetal brain cDNA libraries in the yeast two-hybrid system. The intracellular domain of human VEGFR2 (790-1357 SEQ ID NO 8) was constructed in the bait plasmid (pDBLeu) and the cDNA libraries were constructed in the prey plasmid (pPC86). Following transformation of yeast, positive clones were selected by growth on histidine-deficient media and for the expression of β-galactosidase activity (X-gal selection). […]

[2] = target: T2, human VEGFR2 intracellular domain (Homo sapiens, UniProt P35968); assay: as above; format: binding; conditions: growth on histidine-deficient and uracil-deficient media
T2 construct: expressed in transfected cells; host or cells: yeast strain MaV203 (pDBLeu-hVEGFR2)
T2 sequence (P35968 790-1356): as the sequence (P35968 790-1356 K868R) above, with R79K counted along it
Text: as §1, §2

[3] = Phosphatase activity with fluorogenic substrate DiFMUP; format: biochemical
Method: Purified, recombinant KAPh phosphatase domain (amino acids 83-464 SEQ ID NO 4) (100 μg/mL) and full-length PTEN (amino acids 1-403) (100 μg/mL) were each mixed with a fluorogenic phosphatase substrate 6,8-difluoro-4-methylumbelliferyl phosphate (DiFMUP) (Molecular Probes, Eugene, Oreg.) at a final concentration of a 100 μM in assay buffer (10 mM sodium acetate, pH 6.0, 150 mM NaCl, 5 mM DTT). Following incubation at ambient temperature for 15 or 60 min., the fluorescence intensity of the 6,8-difluoro-4-methylumbelliferone (DiFMU) product was measured in triplicate and used as an assessment of phosphatase activity. A Victor 5 microplate reader from Wallac (Turku, Finland) was used to read the fluorescence intensity from 384-well microplates (Corning Inc., Corning, N.Y.).

human VEGF receptor-1 = target: T3, human VEGF receptor-1 (Homo sapiens, UniProt P17948); assay: GST pull-down association assay, VEGFR-1; format: binding; conditions: HEK 293 lysate expressing His-tagged full-length KAPh
T3 construct: the intracellular domain of each receptor tyrosine kinase was generated as an in-frame GST fusion; made in house; host or cells: Sf9 insect cells (baculovirus)
T3 sequence (P17948 781-1338 limits assumed): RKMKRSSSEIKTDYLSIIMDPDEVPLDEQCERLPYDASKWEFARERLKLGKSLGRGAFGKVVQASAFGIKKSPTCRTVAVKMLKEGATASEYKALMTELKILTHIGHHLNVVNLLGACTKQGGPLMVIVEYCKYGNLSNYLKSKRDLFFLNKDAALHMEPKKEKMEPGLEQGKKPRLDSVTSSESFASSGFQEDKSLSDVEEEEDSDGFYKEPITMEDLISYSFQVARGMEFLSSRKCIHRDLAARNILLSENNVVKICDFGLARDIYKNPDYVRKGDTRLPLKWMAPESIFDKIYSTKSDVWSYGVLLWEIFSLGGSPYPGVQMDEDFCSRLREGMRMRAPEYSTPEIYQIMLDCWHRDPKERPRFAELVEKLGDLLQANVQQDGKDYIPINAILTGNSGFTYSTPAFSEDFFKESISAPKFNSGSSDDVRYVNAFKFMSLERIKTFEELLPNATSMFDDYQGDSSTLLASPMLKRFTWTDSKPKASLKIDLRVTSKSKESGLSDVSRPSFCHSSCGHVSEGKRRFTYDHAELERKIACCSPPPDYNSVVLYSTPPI
Text: Recombinant VEGFR-1 kinase (wild-type and K862R mutant), VEGFR2 kinase (wild-type and K870R mutant), Tie1 kinase (wild-type and K871R mutant), and Tie2 kinase (wild-type and K856R mutant) were expressed as glutathione S-transferase (GST) fusion proteins in Sf9 cells using a baculovirus expression system. Briefly, the intracellular domain of each receptor tyrosine kinase was generated as an in-frame GST fusion using the pAcGHLT baculovirus transfer vector (Pharmingen, San Diego, Calif.). Each baculovirus transfer vector construct was cotransfected with BaculoGold (Pharmingen, San Diego, Calif.) linearized AcNPV baculovirus DNA into Sf9 cells for the generation of recombinant baculoviruses. Five days post-transfection, recombinant baculoviruses were harvested and amplified by re-infection of Sf9 cells. Each amplified baculovirus was then used to infect Sf9 cells for the expression of the recombinant kinases. […]
The immobilized, autophosphorylated kinases were then incubated with HEK 293 cell lysates which overexpressed either the KAPh SH2 domain or KAPh full-length protein. […] KAPh protein that associated with the recombinant kinases was analyzed by Western blot using a chemiluminescence detection system (Amersham Pharmacia, Piscataway, N.J.).

yeast two-hybrid interaction with KDR K870R mutant [1]: essentially no significant interaction | yeast two-hybrid interaction with wild-type KDR [2]: robust protein-protein interaction | fluorescent product (DiFMU) generated, fold over buffer control ([3]; 100 μg/mL protein, 100 μM DiFMUP, pH 6.0, ambient temperature, 60 min incubation): ~10 fold
B1: KAPh: novel human KDR Associated Phosphatase protein, full-length sequence SEQ ID NOS 1 and 2 (protein, listed as Homo sapiens)
chain: MKPRKAEPHSFREKVFRKKPPVCAVCKVTIDGTGVSCRVCKVATHRKCEAKVTSACQALPPVELRRNTAPVRRIEHLGSTKSLNHSKQRSTLPRSFSLDPLMERRWDLDLTYVTERILAAAFPARPDEQRHRGHLRELAHVLQSKHRDKYLLFNLSEKRHDLTRLNPKVQDFGWPELHAPPLDKLCSICKAMETWLSADPQHVVVLYCKGNKGKLGVIVSAYMHYSKISAGADQALATLTMRKFCEDKVATELQPSQRRYISYFSGLLSGSIRMNSSPLFLHYVLIPMLPAFEPGTGFQPFLKIYQSMQLVYTSGVYHIAGPGPQQLCISLEPALLLKGDVMVTCYHKGGRGTDRTLVFRVQFHTCTIHGPQLTFPKDQLDEAWTDERFPFQASVEFVFSSSPEKIKGSTPRNDPSVSVDYNTTEPAVRWDSYENFNQHHEDSVDGSLTHTRGPLDGSPYAQVQRPPRQTPPAPSPEPPPPPMLSVSSDSGHSSTLTTEPAAESPGRPPPTAAERQELDRLLGGCGVASGGRGAGRETAILDDEEQPTVGGGPHLGVYPGHRPGLSRHCSCRQGYREPCGVPNGGYYRPEGTLERRRLAYGGYEGSPQGYAEASMEKRRLCRSLSEGLYPYPPEMGKPATGDFGYRAPGYREVVILEDPGLPALYPCPACEEKLALPTAALYGLRLEREAGEGWASEAGKPLLHPVRPGHPLPLLLPACGHHHAPMPDYSCLKPPKAGEEGHEGCSYTMCPEGRYGHPGYPALVTYSYGGAVPSYCPAYGRVPHSCGSPGEGRGYPSPGAHSPRAGSISPGSPPYPQSRKLSYEIPTEEGGDRYPLPGHLASAGPLASAESLEPVSWREGPSGHSTLPRSPRDAPCSASSELSGPSTPLHTSSPVQGKESTRRQDTRSPTSAPTQRLSPGEALPPVSQAGTGKAPELPSGSGPEPLAPSPVSPTFPPSSPSDWPQERSPGGHSDGASPRSPVPTTLPGLRHAPWQGPRGPPDSPDGSPLTPVPSQMPWLVASPEPPQSSPTPAFPLAASYDTNGLSQPPLPEKRHLPGPGQQPGPWGPEQASSPARGISHHVTFAPLLSDNVPQTPEPPTQESQSNVKFVQDTSKFWYKPHLSRDQAIALLKDKDPGAFLIRDSHSFQGAYGLALKVATPPPSAQPWKGDPVEQLVRHFLIETGPKGVKIKGCPSEPYFGSLSALVSQHSISPISLPCCLRILSKDPLEETPEAPVPTNMSTAADLLRQGAACSVLYLTSVETESLTGPQAVARASSAALSCSPRPTPAVVHFKVSAQGITLTDNQRKLFFRRHYPVNSITFSSTDPQDRRWTNPDGTTSKIFGFVAKKPGSPWENVCHLFAELDPDQPAGAIVTFITKVLLGQRK
phosphatase activity against DiFMUP relative to PTEN ([3]; KAPh versus PTEN): 1- to 2 fold | interaction with GST VEGFR-1, wild-type versus K862R (human VEGF receptor-1): weak, but reproducible, autophosphorylation-dependent interaction
